Reference: patent US20250376507A1 (INDUSTRY FOUNDATION OF CHONNAM NATIONAL UNIVERSITY, published 2025)

Legend:
[1] = molecular target: CRT4LP (PASylated CRT-targeted L-ASNase: CRT4 monobody - L-ASNase - PAS200 tag - His6) (E. coli)
[2] = molecular target: CRT3LP (PASylated CRT-targeted L-ASNase: CRT3 monobody - L-ASNase - PAS200 tag - His6) (E. coli)

B1: recombinant calreticulin protein (rCRT) (other)
chain: EPAVYFKEQFLDGDGWTSRWIESKHKSDFGKFVLSSGKFYGDEEKDKGLQTSQDARFYALSASFEPFSNKGQTLVVQFTVKHEQNIDCGGGYVKLFPNSLDQTDMHGDSEYNIMFGPDICGPGTKKVHVIFNYKGKNVLINKDIRCKDDEFTHLYTLIVRPDNTYEVKIDNSQVESGSLEDDWDFLPPKKIKDPDASKPEDWDERAKIDDPTDSKPEDWDKPEHIPDPDAKKPEDWDEEMDGEWEPPVIQNPEYKGEWKPRQIDNPDYKGTWIHPEIDNPEYSPDPSIYAYDNFGVLGLDLWQVKSGTIFDNFLITNDEAYAEEFGNETWGVTKAAEKQMKDKQDEEQRLKEEEEDKKRKEEEEAEDKEDDEDKDEDEEDEEDKEEDEEEDVPGQAKDEL
Kd [1]: 2.3 nM | Kd [2]: 2.07 nM
